# Experimental data: the nanobody polyreactivity screen of Harvey et al. (2022)
# Assay: yeast display, Sf9 membrane polyspecificity reagent, FACS + sequencing; frameworks hold sequencing errors
# How it was run: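 Galactose induction of a Saccharomyces cerevisiae BJ5465 synthetic nanobody display library ran 36–48 hours. The cells were then stained for 1 hour at 4 °C with 10% biotinylated, detergent-solubilized Sf9 membrane reagent, pulled down on streptavidin microbeads and FACS-sorted into low and high (top ~1%) gates on expression and reagent-binding fluorescence. Labels for polyreactivity follow the gate of origin.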
row,Sequence,polyreactivity (PSR sort gate)
1,QVQLVESGGGLVQARGSLRLSCAATGSTLSFYAMVWYRQAPGKERELVAAISYSTGTTYYADSVKGRFTISRDNAKNTVYLQMNSLKPEDTAVYYCNAVGTGGYSSEYGYWGQGTQVTVSS,high polyreactivity
2,QVQLVESGGGLVQAGGSLRLSCAASGSIFSRNAMGWYRQAPGKERELVAAISRRGGSTYYADSVKGRFTISRDNAKITVYLQMNSLKPEDTAVYYCAAPFEAVRSYYWGQGTQVTVSS,high polyreactivity
3,QVQLVESGGGLVQAGGSLRLSCAASGRIFGPDAMRWYRQAPRKERELVAAITWRGDRTYYADSVKGRFTISRDIAKNSVYLQINSLKPEDTAVYYCAARGGRSEYDYWGQATQVTVSS,low polyreactivity
4,QVQLVESGGGLVQAGGSLRLSCAASGFIFVPYAMGWYRQAPGKERELVASITYTGGSTYYADSVKGRFTISRDNAKNTVYLQMNSLKPEDTAVYYCASRYQYWRLHMDYWGQGTPVTVSS,low polyreactivity
5,QVQLVESGGGLVQAGGSLRLSCAASGRIWGYAMGLYRQAPGKARELVATITYNSGRTYYADSVKGRFTISRDNAKNTVYLQMNSLKPEDTAVYYCNKDFDGRFDYWGQGTQVNVSS,high polyreactivity
6,QVQLVESGGGLVQAGGSLRLSCAASGSIFPLYDMGWSRQATGKQSELVASITSGDTTNYADSVKGRFTISRDNAKNTVYLQMISLNAEDTAVYYCATDTPTDRYAAYPNDQYYYWGQGTQVTVSS,low polyreactivity
7,QVQLVESGGGLVQAGGSLRLSCAASGSIFYNAMGWYRQAPGKERELVAAISYRGGRTYYADSVKGRFTISRDNAKNTVYLQMNSLKPEDTAVYYCAADSTVGRYPYDYWGPGTQVTVSS,high polyreactivity
8,QVQLQESGGGLVQAGGSLRLSCAASGYISHADEMGWYRQAPGKEHELVASISNGGSTNYADSVKGRFTISRDNAKNTVYLQMNSLKSELTAVYYCAAWTGQVDIHYYWGQGTQVTVSS,low polyreactivity
9,QVQLVESGGCLVQAGGSLRLTCAASGRTFYWNTMGWYRQAPGKERELVAAISSSGDSTYYADSVKGRFTISRDNAKNTVYLQMNCLKPEDTAVYYCAAGRRGTSTTWGQGSQVTVSS,high polyreactivity
10,QVQLVESSGGLVQAGGSLRLICAASGRIFSRYPMGWYRKAPGKERELVAAITYSGGNTYYADSVKGRFTISRDYAKNTVYLQMNSLKPEDTAVYYCNAYRPYYSYVSHEHYYWGQGTQVTVSS,high polyreactivity
11,QVQLVESGGGLVQAGGSLRLSCAASGRTFSTNAMGWYIQAPGKEREFVAAITGSGGSTYYADSVKGRFTISRDNAKNTVYLQMNSLKPEDTAVYYCAADRPGSRFIDVDYWGQGTQVTVSS,high polyreactivity
12,QVQLVESGGALVQAGATLRISSAASGSIFYRNSMRWYRQAPGKEREKVAANSSDGSRNYADSVKGRFSISRDNAKNTVYLQMNSLKPEDNAVYYCAVDYGTQYGEYTYYDYDYWGQCTQVTVSS,low polyreactivity
13,QVQLVESGGALVQAGGSLRLSCAASGFTFRRYAMGWYRQAPGKERELVAAINKSGGSTYYADSVKGRFTISRDKSKNTVYFQMNSLKPEDTAVYYCAARFSYWKTKRAYDWGQGTQVNVSS,high polyreactivity
14,QVQLVESGGGLVQAGGSLRVSCAASGIIFGPYVMGWSRQAPGKERELVATISRTGDTYYADSVKGRFTISRDNAKNTVYLQMNSLKPEDTAVYYCNTQDHGYGFTMDYWGQGTQVTVSS,low polyreactivity
15,QVQLVESGGGLVQAGGSLRLSCAASGIIFYKNDMGWYRQAPGKERELVAAINRSGGRTYYADSVKGRFTISRDNAKNTVYLQMNSLKPEDTAVYYCATDKVSHRRYDYWGQGTLVTVSS,high polyreactivity
16,QVQLVESGGGLVQAGGSLRLSCAASGRILGTYAMGWYRQAPGKERELVAAISGSGGDTYYADSVKGRFTISRDNAKNTVYLQMNSLKPEDTAVYYCAAEVPFTGGFFKYYYWGQGTQVTVSS,low polyreactivity
17,QVQLVESGGGLVQAGGSLRLSCAASGRTFYRYAMGCYRQAPGKERELVAAISWRGGSTNYADSVKGRFTISRDNAKNTVYLQMNSLKPEDTAVYYCNAKFFLPATTRYYYWGQGTQVTVSS,high polyreactivity
18,QVQLVESGGGLVQAGGSLRLSCAASGFTFWDYAMGWYRQAPGKERELVAAISDNDGSTDYADSVKGRFTISRDNAKNTVYLQMNSLKPEDTAVYYCNAEIEMPSKEGDYWGQGTQVTVSS,low polyreactivity
19,QVQLVESGAGLVQAGGSLRLSCAAYGRIFGIYALGWYRQAPGKEREFVAAISDRSGSRTYYADSVKGRFTISRDNAKNTVYLQINSLKPEDTAVYYCAAGILRWKDRWFEYWGQGTQVTVSS,high polyreactivity
20,QVQLVESGGGLFQAGGSLRLSCAASGITFSKNSMGWYRQAPGQERELVAAITRRSVSKYYADSVKGRFTISRDNENNNLYLQMNSLKPEYTAVYYCAASYSSKHGYWGQGTQVTVSS,high polyreactivity
21,QVQLVESGGGLVQAGGSLRLSCAASGSTFLTYAMGWYRQAPGKERELLAASTRSTSTYADSVKGRFTISRDNAKNTVYFQMNSLKPEDTAVYYCNVDSYFRWWYDEWGQGTQVTVSS,high polyreactivity
22,QEQLVESGGGLVQAGGSLRLSCAASGFIFAPYAMGWYSQAPGKDRDLVAAISSSGGSTYYADSVKGRFTISRDNAKNTVYLQMNSLKPEDTAVFYCAARGNFGANPGRKHGFDYWGQGTQVTVSS,low polyreactivity
